Source: patent publication US20190077860A1 (EISAI R AND D MANAGEMENT, published 2019)
Positions count from the first letter of the chain named. Names may count otherwise.

T1: human EphB4 extracellular region-SEAP-His protein (human, UniProt P54760 16-539)
T1 construct: extracellular domain; also called hEphB4-SEAP-His
T1 sequence (looked up): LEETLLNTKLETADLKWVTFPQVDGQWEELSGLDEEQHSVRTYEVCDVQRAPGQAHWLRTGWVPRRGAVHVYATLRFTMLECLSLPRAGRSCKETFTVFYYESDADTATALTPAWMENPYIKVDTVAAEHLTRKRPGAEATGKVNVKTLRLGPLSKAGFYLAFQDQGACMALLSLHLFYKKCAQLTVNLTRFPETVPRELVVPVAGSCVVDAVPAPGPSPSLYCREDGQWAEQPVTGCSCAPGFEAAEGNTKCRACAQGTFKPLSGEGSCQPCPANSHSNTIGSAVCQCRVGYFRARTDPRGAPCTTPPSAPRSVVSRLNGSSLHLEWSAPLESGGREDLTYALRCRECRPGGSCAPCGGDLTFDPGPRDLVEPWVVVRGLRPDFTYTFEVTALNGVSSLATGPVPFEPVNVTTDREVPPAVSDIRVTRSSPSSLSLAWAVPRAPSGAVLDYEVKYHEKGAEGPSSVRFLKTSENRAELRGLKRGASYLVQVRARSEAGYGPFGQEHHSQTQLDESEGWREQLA

T2: human EphA3 extracellular region-SEAP-His protein (human, UniProt P29320 21-541)
T2 construct: extracellular domain; also called hEphA3-SEAP-His
T2 sequence (looked up): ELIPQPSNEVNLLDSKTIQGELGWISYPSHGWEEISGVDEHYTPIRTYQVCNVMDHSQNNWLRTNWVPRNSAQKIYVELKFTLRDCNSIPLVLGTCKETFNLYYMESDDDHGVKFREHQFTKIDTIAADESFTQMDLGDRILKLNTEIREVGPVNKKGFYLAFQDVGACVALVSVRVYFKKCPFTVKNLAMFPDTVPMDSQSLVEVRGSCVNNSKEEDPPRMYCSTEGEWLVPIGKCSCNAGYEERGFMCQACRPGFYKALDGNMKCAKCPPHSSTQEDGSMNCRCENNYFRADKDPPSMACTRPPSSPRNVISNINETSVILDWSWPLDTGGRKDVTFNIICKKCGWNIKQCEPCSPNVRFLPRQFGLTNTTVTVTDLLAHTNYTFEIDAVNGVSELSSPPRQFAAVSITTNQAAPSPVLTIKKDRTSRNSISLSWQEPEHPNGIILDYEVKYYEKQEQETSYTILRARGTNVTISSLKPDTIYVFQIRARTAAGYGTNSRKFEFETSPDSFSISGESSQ

B1: humanized antibody No. 76 (antibody, human IgG1, kappa)
heavy: QVQLVQSGSELKKPGASVKVSCKASGYTFTDYSMHWVRQAPGQGLKWMGWINTETGEPTYAQGFTGRFVFSLDTSVSTAYLQISSLKAEDTAVYYCARIPLYYYGSRYWYFDVWGQGTTVTVSSASTKGPSVFPLAPSSKSTSGGTAALGCLVKDYFPEPVTVSWNSGALTSGVHTFPAVLQSSGLYSLSSVVTVPSSSLGTQTYICNVNHKPSNTKVDKRVEPKSCDKTHTCPPCPAPPAAAPSVFLFPPKPKDTLMISRTPEVTCVVVDVSHEDPEVQFNWYVDGVEVHNAKTKPREEQFNSTFRVVSVLTVVHQDWLNGKEYKCKVSNKGLPAPIEKTISKTKGQPREPQVYTLPPSREEMTKNQVSLTCLVKGFYPSDIAVEWESNGQPENNYKTTPPMLDSDGSFFLYSKLTVDKSRWQQGNVFSCSVMHEALHNHYTQKSLSLSPG
light: DIQMTQSPSSLSASVGDRVTITCRASENIYRNLAWYQQKPGKAPKLLVYAATNLADGVPSRFSGSGSGTDYTLTISSLQPEDFATYYCQHFWGTPWTFGQGTKVEIKRTVAAPSVFIFPPSDEQLKSGTASVVCLLNNFYPREAKVQWKVDNALQSGNSQESVTEQDSKDSTYSLSSTLTLSKADYEKHKVYACEVTHQGLSSPVTKSFNRGEC
notes: human Ig kappa; also called L1-4/HA2
B2: humanized antibody No. 140 (antibody, human IgG2)
heavy: QVQLVQSGSELKKPGASVKVSCKASGYTFTDYSMHWVRQAPGQGLKWMGWINTETGEPTYAQGFTGRFVFSLDTSVSTAYLQISSLKAEDTAVYYCARIPLYYYGSRYWYFDVWGQGTTVTVSSASTKGPSVFPLAPSSRSTSESTAALGCLVKDYFPEPVTVSWNSGALTSGVHTFPAVLQSSGLYSLSSVVTVPSSNFGTQTYTCNVDHKPSNTKVDKTVERKSCVECPPCPAPPAAAPSVFLFPPKPKDTLMISRTPEVTCVVVDVSHEDPEVQFNWYVDGVEVHNAKTKPREEQFNSTFRVVSVLTVVHQDWLNGKEYKCKVSNKGLPAPIEKTISKTKGQPREPQVYTLPPSREEMTKNQVSLTCLVKGFYPSDIAVEWESNGQPENNYKTTPPMLDSDGSFFLYSKLTVDKSRWQQGNVFSCSVMHEALHNHYTQKSLSLSPG
light: B1 light
notes: as for B1
B3: humanized antibody No. 67 (antibody, human IgG1, kappa)
heavy: B1 heavy with V2I
light: B1 light
notes: human Ig kappa; also called L1-4/HA4
B4: humanized antibody No. 92 (antibody, human IgG1, kappa)
heavy: B1 heavy with V2I, Q62D, G63D, T65K
light: B1 light with K45Q, V48L
notes: human Ig kappa; also called L1-6/HK4
B5: humanized antibody No. 88 (antibody, human IgG1, kappa)
heavy: B1 heavy
light: B1 light with K45Q, V48L
notes: human Ig kappa; also called L1-6/HA2
B6: humanized antibody No. 77 (antibody, human IgG1, kappa)
heavy: B1 heavy with K46E, Q62D, G63D, T65K
light: B1 light
notes: human Ig kappa; also called L1-4/HK1
B7: humanized antibody No. 69 (antibody, human IgG1, kappa)
heavy: B1 heavy with V2I, Q62D, G63D, T65K
light: B1 light
notes: human Ig kappa; also called L1-4/HK4
B8: humanized antibody No. 78 (antibody, human IgG1, kappa)
heavy: B1 heavy with Q62D, G63D, T65K
light: B1 light
notes: human Ig kappa; also called L1-4/HK2
B9: humanized antibody No. 86 (antibody, human IgG1, kappa)
heavy: B1 heavy with V2I, Q62D, G63D, T65K
light: B1 light with V48L, P80S
notes: human Ig kappa; also called L1-5/HK4
B10: humanized antibody No. 91 (antibody, human IgG1, kappa)
heavy: B1 heavy with Q62D, G63D, T65K
light: B1 light with K45Q, V48L
notes: human Ig kappa; also called L1-6/HK2
B11: humanized antibody No. 89 (antibody, human IgG1, kappa)
heavy: B1 heavy with V2I
light: B1 light with K45Q, V48L
notes: human Ig kappa; also called L1-6/HA4
B12: humanized antibody No. 138 (antibody, human IgG2)
heavy: B2 heavy with V2I
light: B1 light
notes: as for B3
B13: humanized antibody No. 85 (antibody, human IgG1, kappa)
heavy: B1 heavy with Q62D, G63D, T65K
light: B1 light with V48L, P80S
notes: human Ig kappa; also called L1-5/HK2
B14: humanized antibody No. 82 (antibody, human IgG1, kappa)
heavy: B1 heavy
light: B1 light with V48L, P80S
notes: human Ig kappa; also called L1-5/HA2
B15: humanized antibody No. 83 (antibody, human IgG1, kappa)
heavy: B1 heavy with V2I
light: B1 light with V48L, P80S
notes: human Ig kappa; also called L1-5/HA4
B16: humanized antibody No. 90 (antibody, human IgG1, kappa)
heavy: B1 heavy with K46E, Q62D, G63D, T65K
light: B1 light with K45Q, V48L
notes: human Ig kappa; also called L1-6/HK1
B17: humanized antibody No. 139 (antibody, human IgG2)
heavy: B2 heavy with K46E
light: B1 light
notes: human Ig kappa; also called L1-4/HA1
B18: humanized antibody No. 84 (antibody, human IgG1, kappa)
heavy: B1 heavy with K46E, Q62D, G63D, T65K
light: B1 light with V48L, P80S
notes: human Ig kappa; also called L1-5/HK1
B19: humanized antibody No. 75 (antibody, human IgG1, kappa)
heavy: B1 heavy with K46E
light: B1 light
notes: constant region: human IgG1 CH1 and hinge, human IgG2 CH2 and CH3 with V234A, G237A, no C-terminal Lys; human Ig kappa; also called L1-4/HA1
B20: humanized antibody No. 81 (antibody, human IgG1, kappa)
heavy: B1 heavy with K46E
light: B1 light with V48L, P80S
notes: human Ig kappa; also called L1-5/HA1
B21: humanized antibody No. 87 (antibody, human IgG1, kappa)
heavy: B1 heavy with K46E
light: B1 light with K45Q, V48L
notes: human Ig kappa; also called L1-6/HA1

target: T1, human EphB4 extracellular …; assay: ELISA

| Binder | A450 as % of hEphA4-SEAP-His [%] |
| --- | --- |
| B1 | 5.2 |
| B2 | 5.4 |
| B3 | 4.9 |
| B4 | 6.6 |
| B5 | 6.1 |
| B6 | 4.5 |
| B7 | 5.5 |
| B8 | 5.1 |
| B9 | 5.8 |
| B10 | 6.2 |
| B11 | 5.8 |
| B12 | 5.2 |
| B13 | 5.2 |
| B14 | 5.7 |
| B15 | 5.7 |
| B16 | 5 |
| B17 | 5.7 |
| B18 | 5.4 |
| B19 | 4.6 |
| B20 | 5 |
| B21 | 5.5 |

target: T2, human EphA3 extracellular …; assay: ELISA

| Binder | A450 as % of hEphA4-SEAP-His [%] |
| --- | --- |
| B1 | 4.9 |
| B2 | 5.5 |
| B3 | 4.8 |
| B4 | 6.5 |
| B5 | 6 |
| B6 | 4.5 |
| B7 | 5.4 |
| B8 | 5.1 |
| B9 | 5.8 |
| B10 | 6.6 |
| B11 | 5.8 |
| B12 | 4.9 |
| B13 | 5.1 |
| B14 | 5.4 |
| B15 | 5.7 |
| B16 | 5.2 |
| B17 | 5.9 |
| B18 | 4.9 |
| B19 | 4.8 |
| B20 | 5 |
| B21 | 5.5 |
